Source: patent US20220288204A1, “DOSAGE AND ADMINISTRATION OF ANTI-ERBB3 (HER3) MONOCLONAL ANTIBODIES TO TREAT TUMORS ASSOCIATED WITH NEUREGULIN 1 (NRG1) GENE FUSIONS” (ELEVATION ONCOLOGY, INC., priority 2021, published 2022)
“Also recorded” adds a separate entry of the source.

What was measured:
[1] = cited from earlier work
[2] = test system: HER2, HER3, AKT, ERK1/2 phosphorylation and BIM in LUAD-0061AS3 PDX tumors; assay: Western blotting of PDX tumor lysates after single administration; assay type: in vivo, mice
Description: (§1) Characterization of the […] PDX model. H&E staining, TTF-1, and phospho-HER3 IHC (FIG. 5A, left to right). […] (FIG. 5B). Tumor volumes were measured twice weekly and plotted overtime. Results represent the mean±SEM. […] Western blotting was performed twice for each protein and representative immunoblots of phosphorylated (p) and total (t) proteins are shown (FIG. 5C).
(§2) Crushed PDX tumor samples were mixed with Matrigel (50%) and injected into the subcutaneous flank of 6-week-old female NSG (LUAD-0061AS3) or Balb/c nude (OV-10-0050) mice. When tumors reached approximately 100-150 mm3, mice were randomly assigned to groups of 5-8 and treatment was commenced. There were 2 mice per group with bilateral flank tumors for the protein phosphorylation/expression study in the LUAD-0061AS3 PDX model. Drugs were administered once, and then tumors were collected at 2, 24, and 168 hours posttreatment. Afatinib was administered by oral gavage once daily as a suspension (in 0.5% methylcellulose-0.4% Tween-80) on a 5-days-on and 2-days-off schedule. […] Mice were observed daily throughout the treatment period for signs of morbidity and mortality. Tumor length and width and animal weights were measured twice weekly. Tumor volume was calculated using the empirical formula V=length×width 2×0.52. The percentage change in tumor volume of each tumor was calculated using the formula [(V2−V1)/V1)]×100, where V1 is the starting tumor volume and V2 is the final tumor volume.
Protein phosphorylation was then detected by Western blotting of PDX tumor lysates.

LUAD-0061AS3 PDX tumors = assay: NSCLC PDX model efficacy (SLC3A2-NRG1); assay type: in vivo, mice
Description: as §1, §2
The 5 mg/kg daily dose of afatinib is equivalent to the human dose of […] daily, which is the maximum approved dose for patients.
The tumor volume as a function of time is illustrated in FIG. 5B, and the AUC computed for each group to facilitate comparison of tumor volume between groups at the last date all groups had surviving animals (day 35) was determined. […] The highest dose of afatinib (15 mg/kg) was also effective at causing regression of six of seven tumors in the.

[3] = in vivo
Description: Patients are monitored during weekly dosing for a period of 28 days (i.e., throughout C1W1, C1W2, C1W3, and C1W4) for the occurrence of DLTs. […] The grading of AEs is based on the “common terminology criteria for adverse events” (CTCAE) version 5.0. Hematologic toxicity includes febrile neutropenia, neutropenic infection, grade 4 neutropenia >7 days, grade ≥3 thrombocytopenia for >7 days, grade ≥3 thrombocytopenia with clinically significant bleeding, grade 4 thrombocytopenia, and grade ≥3 anemia >7 days.
In the current study, 6 patients were treated in a safety run-in phase with an induction regimen consisting of a 3,000 mg loading dose followed by 2,000 mg weekly for 3 weeks. […] Enrollment continued under Induction Regimen 2 consisting of 3,000 mg once weekly for 4 weeks. The next 6 patients enrolled were treated with Induction Regimen 2.
Upon review, the next 6 patients enrolled and initiated treatment with Induction Regimen 2.
Upon review, all subsequently enrolled patients treated under Protocol Version 2.0 initiated treatment with Induction Regimen 2.

HCC-95 cells = assay: Time-course growth by cell counting; assay type: cell-based, human; conditions: lowest antibody concentration
Description: (§3) Expression of […] (FIG. 1A) or SLC3A2-NRG1 (FIG. 2B) fusions in MDA-MB-175-VII and LUAD-0061AS3 cells, respectively, was determined by RT-PCR. The HBECp53 (NRG1 fusion negative) and HBECp53-SLC3A2-NRG1 cells were used as negative and positive controls, respectively. […] Viability results represent the mean±SEM of 2-5 independent experiments in which each condition was assayed in triplicate determinations. Viability data were analyzed by nonlinear regression and the IC50 values for growth inhibition and the 95% confidence interval were determined with GraphPad Prism 8. […] Results represent the mean±SD for one experiment in which each condition was assayed in duplicate.
(§4) For the time-course experiments, cells were plated at a density of 5,000 (HCC-95) or 10,000 (all others) cells per well in 12-well tissue culture plates, and then treated 24 hours later (time 0) with the respective agents. […] Cells were trypsinized and counted at the relevant time-point shown on the graphs. For dose-response studies, cells were plated at a density of 7,500-10,000 cells in white clear-bottom 96-well plates in a volume of […] complete growth media and […] chemicals added at 10× concentration (to achieve 1× concentration) in a final volume of […]. After 96-hour incubation, […] AlamarBlue cell viability reagent was added to achieve a final concentration of 10%. AlamarBlue is a cell permeable […] dye that is reduced when it enters the mitochondria and emits fluorescence at a different wavelength (Gloeckner H, J. Immunol. Methods 2001; 252:131-8). Fluorescence was measured (excitation, 530 nm and emission, 585 nm) using a […] Spectramax M2 Fluorescence Plate Reader, as described previously (Somwar R, J. Biomol. Screen 2009; 14:1176-84). In each experiment, background fluorescence was determined in cells treated with […] of the 20S proteasome inhibitor, carfilzomib, which is toxic to most cells at high concentrations, and was subtracted from all values. There were 3-4 replicates of each condition. Relative IC50 values and 95% confidence interval values were determined by nonlinear regression analysis using GraphPad Prism 8 software using either a variable slope model or in cases where inhibition was only partial, a three-parameter fit was used. […] Each condition was assayed in triplicate in 2-5 independent experiments.
(§5) In these experiments, the MDA-MB-175 and LUAD-0061AS3 cell lines, isogenic HBECp53 cells ectopically expressing a CD74-NRG1 fusion, and the NRG1-amplified lung cancer cell line, HCC-95 (FIGS. 1E-H) were used. […] Afatinib sensitivity of HCC-95 cells was not examined in this study.

MDA-MB-175-VII cells = assay: Time-course growth by cell counting; assay type: cell-based, human
Description: as §3, §4, §5

HBECp53-CD74-NRG1 cells = assay: Time-course growth by cell counting; assay type: cell-based, human; conditions: highest concentration of seribantumab
Description: as §3, §4, §5

B1: seribantumab: anti-ERBB3 (HER3) fully human monoclonal antibody; heavy and light chains SEQ ID NOs: 12 and 13 (antibody)
heavy: EVQLLESGGGLVQPGGSLRLSCAASGFTFSHYVMAWVRQAPGKGLEWVSSISSSGGWTLYADSVKGRFTISRDNSKNTLYLQMNSLRAEDTAVYYCTRGLKMATIFDYWGQGTLVTVSSASTKGPSVFPLAPCSRSTSESTAALGCLVKDYFPEPVTVSWNSGALTSGVHTFPAVLQSSGLYSLSSVVTVPSSNFGTQTYTCNVDHKPSNTKVDKTVERKCCVECPPCPAPPVAGPSVFLFPPKPKDTLMISRTPEVTCVVVDVSHEDPEVQFNWYVDGVEVHNAKTKPREEQFNSTFRVVSVLTVVHQDWLNGKEYKCKVSNKGLPAPIEKTISKTKGQPREPQVYTLPPSREEMTKNQVSLTCLVKGFYPSDIAVEWESNGQPENNYKTTPPMLDSDGSFFLYSKLTVDKSRWQQGNVFSCSVMHEALHNHYTQKSLSLSPGK
light: QSALTQPASVSGSPGQSITISCTGTSSDVGSYNVVSWYQQHPGKAPKLIIYEVSQRPSGVSNRFSGSKSGNTASLTISGLQTEDEADYYCCSYAGSSIFVIFGGGTKVTVLGQPKAAPSVTLFPPSSEELQANKATLVCLVSDFYPGAVTVAWKADGSPVKVGVETTKPSKQSNNKYAASSYLSLTPEQWKSHRSYSCRVTHEGSTVEKTVAPAECS
maximum tolerated dose ([1]; 43 advanced solid tumor patients): not reached
treatment-emergent adverse events having >20% incidence ([1]; 43 patients, all grades regardless of relationship): fatigue, nausea, diarrhea, vomiting, decreased appetite, hyperglycemia, hypokalemia, and rash
hypomagnesemia ([1]; 43 patients): Grade 1
most commonly reported adverse events ([1]; 43 patients): Grade 1 or 2 rash, nausea, diarrhea and fatigue
BIM expression in tumors ([2]; 0.75 and 1 mg seribantumab, by 2 hours): higher levels of BIM than vehicle-treated tumors
phosphorylation of HER2, HER3, AKT, and ERK1/2 in tumors ([2]; all doses of seribantumab (0.6, 0.75, 1 mg), single administration, 2-hour timepoint): reduced phosphorylation
BIM expression in tumors ([2]; all doses of seribantumab, 168-hour timepoint): Elevated BIM was present
BIM expression in tumors ([2]; all doses of seribantumab, after 24 hours): Induction of BIM expression was clearly seen
HER2 phosphorylation in tumors ([2]; seribantumab higher doses, 168 hours): remained inhibited even after 168 hours
tumors with regression (LUAD-0061AS3 PDX tumors; 0.75 mg seribantumab twice weekly): four of seven
efficacy compared with afatinib (LUAD-0061AS3 PDX tumors; 1 mg BIW seribantumab vs 15 mg/kg daily afatinib): as effective as the 15 mg/kg daily dose of afatinib; also recorded: as effective as the highest dose of afatinib
tumors with regression (LUAD-0061AS3 PDX tumors; 1 mg seribantumab twice weekly): six of seven
maximum tumor reduction (LUAD-0061AS3 PDX tumors; 1 mg seribantumab twice weekly, by day 42): 57.2%±2.6%
tumor volume (LUAD-0061AS3 PDX tumors; all doses of seribantumab tested (0.6, 0.75, 1 mg twice weekly)): bigger decrease in tumor volume
tumor regression (LUAD-0061AS3 PDX tumors; dosage lower than that used in human trials): more than 50%
TEAEs [3]: Grade 1 diarrhea, nausea, fatigue, rash and pruritis
cell growth over time (HCC-95 cells): growth completely inhibited
time at which growth was slowed after start of treatment (MDA-MB-175-VII cells; seribantumab 0.1, 1, 10 μmol/L): 24 h
cell growth over time (MDA-MB-175-VII cells; seribantumab 1 and 10 μmol/L, 12 days): growth was blocked for the entire 12-day period
cell growth over time (HBECp53-CD74-NRG1 cells): almost complete inhibition of growth
